Test results: patent US20250145690A1 (US Dept. of Health and Human Services, published 2025)
Positions count from the first letter of the chain named.

B1: COV49-54 (antibody, V domains shown)
VH: EVQLVESGGGLVQPGGSLRLSCAASGFIVSSNYMSWVRQAPGKGLEWVSMIYSGGSTVYADSVKGRFTISRDISKNTLYLQMNSLRAEDTAVYYCALETFDYWGQGTLVTVSS
VL: DIQMTQSPSSLSASVGDRVTITCRASQGITNHLAWYQQKPGKVPKLLIYAASTLQSGVPSRFSGSGYGTDFTLTISSLQPEDVASYYCQKYDSAPRTFGQGTKVEIK
B2: COV23-01 (antibody, V domains shown)
VH: QVTLKESGPVLVKPTETLTLTCTVSGFSLSNTKMGVSWIRQPPGKALEWLAHIFSNDRKSYTTSLKSRLTISEDTSKSQIVLTMTNMDPVDTATYYCARIGAGGTYNFYYYMDVWGKGTTVTVSS
VL: EIVLTQSPATLSLSPGERATLSCRASQSVSSYLAWYQQKPGQAPRLLIYDASNRATGIPARFSGSGSGTDFTLTISSLEPEDFAVYYCQQRSLYYTFGQGTKLEIK
B3: COV44-74 (antibody, V domains shown)
VH: QVQLVQSGAEVKKPGASVKVSCKASGYTFSSYYMNWVRQAPGQGLEWVGLISPSAGYTAYAQMFQGRVTMTRDTSTSTVYMELSSLRSEDTAVYYCARVAVAGPNDYWGQGTLVTVSS
VL: EIVLTQSPGTLSLSPGERATLSCRASQSISSSYLAWYQQKPGQAPRLVILAASTRATGIPDRFSGSGSGTDFTLTISRLEPEDFALYYCQHYRSSPPLWTFGQGTKVEIR
B4: COV44-37 (antibody, V domains shown)
VH: QVQLVQSGAEVKKPGASVMLSCRASGYTFINDYMHWVRQAPGEGFEWMGIINPTGDGTKFAQKFQGRVTMTRDSSTTTVHMELRSLTSGDTAVYFCATGGRQSAFDIWGQGTVVIVSS
VL: DIVMTQSPLSLPVTPGESASISCRSSQSLLQNNGYNYLDWYLQKPGQSPQLLIYLGSYRASGVPDRFSGSGSGTDFTLKISRVEAEDVGVYYCVQAQQAPPLYTFGQGTKLQIK
B5: COV57-34 (antibody, V domains shown)
VH: QVQLVQSGTEVKKPGSSVKVSCRASGGTLSSYSVSWVRQAPGQGLEWMGRIIPILDKKTYAQKYQGRVTIIADTSTSTVYMELSSLKSDDSAVYYCTTFDYDTSGQRDQHDYWGQGTPVTVSS
VL: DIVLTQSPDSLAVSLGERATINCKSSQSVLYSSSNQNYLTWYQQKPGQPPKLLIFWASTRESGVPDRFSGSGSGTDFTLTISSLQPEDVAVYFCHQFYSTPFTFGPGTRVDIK
B6: COV57-13 (antibody, V domains shown)
VH: B5 VH with D89E, P118L
VL: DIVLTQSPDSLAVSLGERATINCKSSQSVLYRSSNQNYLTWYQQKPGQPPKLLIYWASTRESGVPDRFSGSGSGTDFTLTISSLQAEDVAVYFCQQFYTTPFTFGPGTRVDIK
B7: COV57-38 (antibody, V domains shown)
VH: QVQLVESGGGVVQPGRSLRLSCEASGFNFNNYGMHWVRQAPGKGLEWVAVISYEGSKKYYEDSVRGRFTISRDFSKNTLYLQMNSLRAEDTAVYYCAKANEIFWLGQFKNDALDFWGQGTMVTVSS
VL: QSVLTQPPSASGTPGQRVAVSCSGSSSNIGTNFVNWYQHLPRTAPKLLIYRDNQRPSGVPDRFSGSKSGTSASLAISGLQSEDEADYYCAVWDDSLNGQVFGGGTKVTVL
B8: COV77-09 (antibody, V domains shown)
VH: EVQLVESGGGLVQPGRSLTLSCSGSGFTFGDYSMSWVRQAPGKGLEWLGFIRSQTYGGTTQYAASVQGRFTILRDDSKSIAYLQMNSLKTEDTAVYYCTRNYGVGDYWGQGTLVTVSS
VL: DIVMTQSPASLAVSLGERATIHCRSSLSVLNSSNNKNYLAWYQQKAGQPPKLLMYWASTRESGVPERFSGSGSGTDFTLTISSLEAGDVAVYYCQQYYDKLSLTFGGGTKVEIK

target: T1, HCoV-NL63 spike protein (Sino Biological 40604-V08B) (HCoV-NL63, UniProt Q6Q1S2 19-1296); assay: bead flow cytometry, AUC minus CD4
T1 sequence: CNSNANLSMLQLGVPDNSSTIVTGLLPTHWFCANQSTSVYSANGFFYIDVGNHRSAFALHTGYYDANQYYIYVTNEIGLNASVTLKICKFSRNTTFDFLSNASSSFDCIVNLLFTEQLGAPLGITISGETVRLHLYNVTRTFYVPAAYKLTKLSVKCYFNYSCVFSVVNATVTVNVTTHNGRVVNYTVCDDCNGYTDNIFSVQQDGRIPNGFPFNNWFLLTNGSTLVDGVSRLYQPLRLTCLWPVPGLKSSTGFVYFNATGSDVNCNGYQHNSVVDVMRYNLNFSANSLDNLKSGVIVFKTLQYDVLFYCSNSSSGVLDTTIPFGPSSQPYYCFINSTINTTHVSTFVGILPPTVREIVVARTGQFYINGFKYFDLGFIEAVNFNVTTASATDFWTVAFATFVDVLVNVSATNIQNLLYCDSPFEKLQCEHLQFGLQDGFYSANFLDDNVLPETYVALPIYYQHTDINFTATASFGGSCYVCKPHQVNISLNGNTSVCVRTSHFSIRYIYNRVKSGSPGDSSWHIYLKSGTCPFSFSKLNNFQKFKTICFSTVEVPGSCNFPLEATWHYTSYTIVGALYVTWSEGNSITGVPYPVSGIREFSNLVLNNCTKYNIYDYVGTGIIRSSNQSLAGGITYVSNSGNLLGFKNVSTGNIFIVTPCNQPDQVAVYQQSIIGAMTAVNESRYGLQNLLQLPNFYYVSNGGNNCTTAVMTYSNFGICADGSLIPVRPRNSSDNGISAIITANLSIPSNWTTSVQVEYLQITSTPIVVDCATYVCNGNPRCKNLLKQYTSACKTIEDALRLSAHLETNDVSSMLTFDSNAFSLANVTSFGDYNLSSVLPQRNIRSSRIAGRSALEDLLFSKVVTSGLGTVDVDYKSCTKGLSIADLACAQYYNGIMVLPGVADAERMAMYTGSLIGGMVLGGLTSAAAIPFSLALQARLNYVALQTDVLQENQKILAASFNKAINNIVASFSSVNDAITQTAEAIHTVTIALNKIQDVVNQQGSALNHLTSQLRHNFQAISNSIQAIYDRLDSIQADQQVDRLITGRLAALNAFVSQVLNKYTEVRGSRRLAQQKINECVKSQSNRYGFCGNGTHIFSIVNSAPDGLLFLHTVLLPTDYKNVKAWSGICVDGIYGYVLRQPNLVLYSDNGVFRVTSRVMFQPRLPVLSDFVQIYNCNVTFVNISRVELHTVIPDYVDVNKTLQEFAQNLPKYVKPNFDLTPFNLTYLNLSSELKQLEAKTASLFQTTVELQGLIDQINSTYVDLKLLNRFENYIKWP

Binder | binding result
B1 | no binding (tested: 200 µg/mL)
B2 | no binding (tested: 200 µg/mL)
B3 | no binding (tested: 200 µg/mL)
B4 | no binding (tested: 200 µg/mL)
B5 | no binding (tested: 200 µg/mL)
B6 | no binding (tested: 200 µg/mL)
B7 | no binding (tested: 200 µg/mL)
B8 | no binding (tested: 200 µg/mL)

target: T2, HCoV-229E spike protein (Sino Biological 40605-V08B) (HCoV-229E, UniProt P15423 16-1115); assay: bead flow cytometry, AUC minus CD4
T2 sequence: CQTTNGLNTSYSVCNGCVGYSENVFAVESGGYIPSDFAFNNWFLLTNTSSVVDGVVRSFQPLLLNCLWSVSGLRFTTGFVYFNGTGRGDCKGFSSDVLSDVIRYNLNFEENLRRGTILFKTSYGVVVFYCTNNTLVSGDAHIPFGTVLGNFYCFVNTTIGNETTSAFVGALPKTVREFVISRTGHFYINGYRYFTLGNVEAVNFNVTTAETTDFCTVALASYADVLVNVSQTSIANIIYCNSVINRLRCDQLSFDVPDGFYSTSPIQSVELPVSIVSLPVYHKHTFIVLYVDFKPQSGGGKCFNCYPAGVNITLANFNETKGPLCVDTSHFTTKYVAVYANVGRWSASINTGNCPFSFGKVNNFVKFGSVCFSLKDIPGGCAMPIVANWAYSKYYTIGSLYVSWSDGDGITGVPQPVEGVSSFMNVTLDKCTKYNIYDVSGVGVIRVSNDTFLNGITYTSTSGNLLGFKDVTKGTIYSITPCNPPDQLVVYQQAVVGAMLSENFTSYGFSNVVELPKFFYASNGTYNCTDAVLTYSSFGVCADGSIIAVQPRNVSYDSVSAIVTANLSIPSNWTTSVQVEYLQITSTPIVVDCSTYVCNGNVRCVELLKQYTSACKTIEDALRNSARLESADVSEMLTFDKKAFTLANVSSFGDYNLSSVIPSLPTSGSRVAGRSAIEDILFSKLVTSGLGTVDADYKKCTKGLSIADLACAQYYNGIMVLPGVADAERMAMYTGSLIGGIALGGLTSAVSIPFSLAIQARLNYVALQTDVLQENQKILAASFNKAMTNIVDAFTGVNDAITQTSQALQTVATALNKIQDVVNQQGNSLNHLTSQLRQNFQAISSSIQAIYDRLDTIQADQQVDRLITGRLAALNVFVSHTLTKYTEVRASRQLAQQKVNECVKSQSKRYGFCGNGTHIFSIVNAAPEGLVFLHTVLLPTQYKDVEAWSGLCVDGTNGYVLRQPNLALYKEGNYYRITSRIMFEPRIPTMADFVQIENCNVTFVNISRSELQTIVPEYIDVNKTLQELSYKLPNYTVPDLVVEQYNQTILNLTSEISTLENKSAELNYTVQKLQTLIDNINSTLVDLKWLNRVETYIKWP

Binder | binding result
B1 | no binding (tested: 200 µg/mL)
B2 | no binding (tested: 200 µg/mL)
B3 | no binding (tested: 200 µg/mL)
B4 | no binding (tested: 200 µg/mL)
B5 | no binding (tested: 200 µg/mL)
B6 | no binding (tested: 200 µg/mL)
B7 | no binding (tested: 200 µg/mL)
B8 | no binding (tested: 200 µg/mL)

target: SARS-CoV-2 spike receptor binding domain (RBD), recombinant (SARS-CoV-2, UniProt P0DTC2 319-541); assay: bead flow cytometry, AUC minus CD4

Binder | binding result
B1 | no binding (tested: 200 µg/mL)
B2 | no binding (tested: 200 µg/mL)
B3 | no binding (tested: 200 µg/mL)
B4 | no binding (tested: 200 µg/mL)
B5 | no binding (tested: 200 µg/mL)
B6 | no binding (tested: 200 µg/mL)
B7 | no binding (tested: 200 µg/mL)
B8 | no binding (tested: 200 µg/mL)

target: SARS-CoV-2 spike N-terminal domain (NTD), recombinant (SARS-CoV-2, UniProt P0DTC2 14-305); assay: bead flow cytometry, AUC minus CD4

Binder | binding result
B1 | no binding (tested: 200 µg/mL)
B2 | no binding (tested: 200 µg/mL)
B3 | no binding (tested: 200 µg/mL)
B4 | no binding (tested: 200 µg/mL)
B5 | no binding (tested: 200 µg/mL)
B6 | no binding (tested: 200 µg/mL)
B7 | no binding (tested: 200 µg/mL)
B8 | no binding (tested: 200 µg/mL)
